Data on six substances can be found in the supplement of paper PMC5998384.

Data set [1] concerns HeLa Kyoto. The experiment in a line: solubility in G1/S (NP-40 vs SDS abundance) (log2 ratio); higher = more soluble. The note with it: cell cycle stage: G1/S.
Data set [2] deals with HeLa Kyoto. The experiment in a line: melting temperature (median over replicates), in situ; higher = more thermally stable.
Data set [3] concerns HeLa Kyoto. The experiment in a line: thermal stability score vs G1/S (z-score of summed log2 fold changes over temperatures); higher = more thermally stable than in G1/S.
Data set [4] concerns HeLa Kyoto. The experiment in a line: solubility change mitosis vs G1/S (difference of NP-40 vs SDS log2 ratios) (log2 ratio difference); higher = more soluble in mitosis.
Setting [5] is: cell cycle stage: early G1 (4.5 h after nocodazole release).
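Throughout, for melting temperature (median over replicates), in situ: HeLa Kyoto cells synchronized by double thymidine or nocodazole block, proteins quantified by TMT10plex mass spectrometry, three independent biological replicates.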
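Throughout, for solubility change mitosis vs G1/S (difference of NP-40 vs SDS log2 ratios): synchronized HeLa Kyoto cells (double thymidine block for G1/S, nocodazole release for mitosis), protein amounts in NP-40 versus SDS lysates quantified by mass spectrometry, three biological replicates.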
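Throughout, for solubility in G1/S (NP-40 vs SDS abundance): HeLa Kyoto cells arrested at G1/S by double thymidine block, proteins quantified by TMT10plex mass spectrometry in mild NP-40 versus SDS extracts, three biological replicates.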
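Throughout, for thermal stability score vs G1/S (z-score of summed log2 fold changes over temperatures): synchronized HeLa Kyoto cells, proteins quantified by TMT10plex mass spectrometry, three biological replicates, mitosis taken 0.5 h after nocodazole release, G1/S directly after double thymidine block.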

On to “MAAPEERDLTQEQTEKLLQFQDLTGIESMDQCRHTLEQHNWNIEAAVQDRLNEQEGVPSVFNPPPSRPLQVNTADHRIYSYVVSRPQPRGLLGWGYYLIMLPFRFTYYTILDIFRFALRFIRPDPRSRVTDPVGDIVSFMHSFEEKYGRAHPVFYQGTYSQALNDAKRELRFLLVYLHGDDHQDSDEFCRNTLCAPEVISLINTRMLFWACSTNKPEGYRVSQALRENTYPFLAMIMLKDRRMTVVGRLEGLIQPDDLINQLTFIMDANQTYLVSERLEREERNQTQVLRQQQDEAYLASLRADQEKERKKREERERKRRKEEEVQQQKLAEERRRQNLQEEKERKLECLPPEPSPDDPESVKIIFKLPNDSRVERRFHFSQSLTVIHDFLFSLKESPEKFQIEANFPRRVLPCIPSEEWPNPPTLQEAGLSHTEVLFVQDLTDE [FAF2]”, for which the “solubility in G1/S (log2)” value in data set [1] is -0.0258. The results for the melting temperature in data set [2] (cell cycle stage: G1/S) and in data set [2] (cell cycle stage: mitosis) were 49.9 °C and 50.4 °C, respectively. The thermal stability score came out at 2.25 in data set [3] (setting [5]) and 3.16 in data set [3] (cell cycle stage: mitosis). The “solubility change mitosis (log2)” value in data set [4] is -0.13.

With “MALLSTVRGATWGRLVTRHFSHAARHGERPGGEELSRLLLDDLVPTSRLELLFGMTPCLLALQAARRSVARLLLQAGKAGLQGKRAELLRMAEARDIPVLRPRRQKLDTMCRYQVHQGVCMEVSPLRPRPWREAGEASPGDDPQQLWLVLDGIQDPRNFGAVLRSAHFLGVDKVITSRRNSCPLTPVVSKSSAGAMEVMDVFSTDDLTGFLQTKAQQGWLVAGTVGCPSTEDPQSSEIPIMSCLEFLWERPTLLVLGNEGSGLSQEVQASCQLLLTILPRRQLPPGLESLNVSVAAGILLHSICSQRKGFPTEGERRQLLQDPQEPSARSEGLSMAQHPGLSSGPEKERQNEG [MRM1]”, the “solubility in G1/S (log2)” value in data set [1] is -0.178. The melting temperature is 53.3 °C in data set [2] (cell cycle stage: G1/S) and 51.7 °C in data set [2] (cell cycle stage: mitosis). Further, the thermal stability score in data set [3] (setting [5]) was -1.62; in data set [3] (cell cycle stage: mitosis), -1.81. The “solubility change mitosis (log2)” value in data set [4] worked out at 0.0939.

Regarding “MATAATSPALKRLDLRDPAALFETHGAEEIRGLERQVRAEIEHKKEELRQMVGERYRDLIEAADTIGQMRRCAVGLVDAVKATDQYCARLRQAGSAAPRPPRAQQPQQPSQEKFYSMAAQIKLLLEIPEKIWSSMEASQCLHATQLYLLCCHLHSLLQLDSSSSRYSPVLSRFPILIRQVAAASHFRSTILHESKMLLKCQGVSDQAVAEALCSIMLLEESSPRQALTDFLLARKATIQKLLNQPHHGAGIKAQICSLVELLATTLKQAHALFYTLPEGLLPDPALPCGLLFSTLETITGQHPAGKGTGVLQEEMKLCSWFKHLPASIVEFQPTLRTLAHPISQEYLKDTLQKWIHMCNEDIKNGITNLLMYVKSMKGLAGIRDAMWELLTNESTNHSWDVLCRRLLEKPLLFWEDMMQQLFLDRLQTLTKEGFDSISSSSKELLVSALQELESSTSNSPSNKHIHFEYNMSLFLWSESPNDLPSDAAWVSVANRGQFASSGLSMKAQAISPCVQNFCSALDSKLKVKLDDLLAYLPSDDSSLPKDVSPTQAKSSAFDRYADAGTVQEMLRTQSVACIKHIVDCIRAELQSIEEGVQGQQDALNSAKLHSVLFMARLCQSLGELCPHLKQCILGKSESSEKPAREFRALRKQGKVKTQEIIPTQAKWQEVKEVLLQQSVMGYQVWSSAVVKVLIHGFTQSLLLDDAGSVLATATSWDELEIQEEAESGSSVTSKIRLPAQPSWYVQSFLFSLCQEINRVGGHALPKVTLQEMLKSCMVQVVAAYEKLSEEKQIKKEGAFPVTQNRALQLLYDLRYLNIVLTAKGDEVKSGRSKPDSRIEKVTDHLEALIDPFDLDVFTPHLNSNLHRLVQRTSVLFGLVTGTENQLAPRSSTFNSQEPHNILPLASSQIRFGLLPLSMTSTRKAKSTRNIETKAQVVPPARSTAGDPTVPGSLFRQLVSEEDNTSAPSLFKLGWLSSMTK [COG1]”, in data set [1], the “solubility in G1/S (log2)” value was -0.122. Also, the melting temperature in data set [2] (cell cycle stage: G1/S) is 49.8 °C; in data set [2] (cell cycle stage: mitosis), 49.4 °C. The thermal stability score in data set [3] (setting [5]) is -0.0852; in data set [3] (cell cycle stage: mitosis), 0.918. Besides, the “solubility change mitosis (log2)” value in data set [4] was 0.0588.

KIF13A: the “solubility in G1/S (log2)” value in data set [1] is -0.0515. The melting temperature in data set [2] (cell cycle stage: G1/S) is 51.9 °C; in data set [2] (cell cycle stage: mitosis), 51.4 °C. Also, the results for the thermal stability score in data set [3] (setting [5]) and in data set [3] (cell cycle stage: mitosis) were -0.212 and -0.151, respectively. Further, the “solubility change mitosis (log2)” value in data set [4] is -0.102.

Consider FRYL, for which the “solubility in G1/S (log2)” value in data set [1] was -0.239. In addition, the figures for the melting temperature in data set [2] (cell cycle stage: G1/S) and in data set [2] (cell cycle stage: mitosis) were 49.7 °C and 52.1 °C, respectively. In addition, the thermal stability score in data set [3] (setting [5]) is -0.342; in data set [3] (cell cycle stage: mitosis), 0.441. The “solubility change mitosis (log2)” value in data set [4] is -0.116.

Consider “MGRTYIVEETVGQYLSNINLQGKAFVSGLLIGQCSSQKDYVILATRTPPKEEQSENLKHPKAKLDNLDEEWATEHACQVSRMLPGGLLVLGVFIITTLELANDFQNALRRLMFAVEKSINRKRLWNFTEEEVSERVTLHICASTKKIFCRTYDIHDPKSSARPADWKYQSGLSSSWLSLECTVHINIHIPLSATSVSYTLEKNTKNGLTRWAKEIENGVYLINGQVKDEDCDLLEGQKKSSRGNTQATSHSFDVRVLTQLLLNSDHRSTATVQICSGSVNLKGAVKCRAYIHSSKPKVKDAVQAVKRDILNTVADRCEMLFEDLLLNEIPEKKDSEKEFHVLPYRVFVPLPGSTVMLCDYKFDDESAEEIRDHFMEMLDHTIQIEDLEIAEETNTACMSSSMNSQASLDNTDDEQPKQPIKTTMLLKIQQNIGVIAAFTVAVLAAGISFHYFSD [ODR4]”, for which the “solubility in G1/S (log2)” value in data set [1] was -0.0468. Moreover, the melting temperature was found to be 50.6 °C in data set [2] (cell cycle stage: G1/S) and 51.1 °C in data set [2] (cell cycle stage: mitosis). Besides, the thermal stability score in data set [3] (setting [5]) was 0.605; in data set [3] (cell cycle stage: mitosis) it was 0.226. Besides, the “solubility change mitosis (log2)” value in data set [4] was -0.0887.
